According to paper PMC9239997, “Structural basis for mitoguardin-2 mediated lipid transport at ER-mitochondrial membrane contact sites” (Nature Communications, 2022):
Substitutions are numbered along the chain they refer to. Numbers in names are those of the source. [ ]: non-standard residue; d: D form. pS = N[C@@H](COP(=O)(O)O)C(=O)O

T1: zMiga2 (Danio rerio, UniProt Q5BLE2)
T1 construct: gene miga2; LD targeting domain, residues 310-568; E. coli BL21(DE3); His6 tag cleaved by TEV
T1 sequence (Q5BLE2 310-568): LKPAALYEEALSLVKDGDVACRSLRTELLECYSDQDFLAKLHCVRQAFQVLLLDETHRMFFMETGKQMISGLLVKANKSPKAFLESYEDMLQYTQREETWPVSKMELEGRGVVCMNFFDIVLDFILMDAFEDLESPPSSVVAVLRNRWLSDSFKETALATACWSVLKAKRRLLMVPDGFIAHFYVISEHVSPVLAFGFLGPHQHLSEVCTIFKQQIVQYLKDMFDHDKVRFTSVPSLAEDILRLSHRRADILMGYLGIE

T2: mouse MIGA2 residues 275-570 S292E/S295D (mouse, UniProt Q8BK03 275-570, S292E | S295D)
T2 construct: source: E. coli BL21 (DE3), purified as the wild type (Ni2+-chelated HiTrap, tag cleaved by TEV, size exclusion chromatography)
T2 sequence (looked up): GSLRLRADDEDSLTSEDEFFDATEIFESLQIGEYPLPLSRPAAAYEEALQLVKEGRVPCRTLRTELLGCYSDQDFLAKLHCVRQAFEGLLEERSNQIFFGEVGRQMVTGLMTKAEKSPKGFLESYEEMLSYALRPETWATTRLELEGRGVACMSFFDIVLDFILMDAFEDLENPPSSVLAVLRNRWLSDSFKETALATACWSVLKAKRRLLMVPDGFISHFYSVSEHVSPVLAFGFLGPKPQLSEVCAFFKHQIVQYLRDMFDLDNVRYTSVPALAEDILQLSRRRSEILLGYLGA

T3: mouse MIGA2 residues 275-570 S295D (mouse, UniProt Q8BK03 275-570, S295D)
T3 construct: source: E. coli BL21 (DE3), purified as the wild type (Ni2+-chelated HiTrap, tag cleaved by TEV, size exclusion chromatography)
T3 sequence (looked up): T2 sequence (looked up) with E18S

T4: mouse MIGA2 residues 275-570 S292E (mouse, UniProt Q8BK03 275-570, S292E)
T4 construct: source: E. coli BL21 (DE3), purified as the wild type (Ni2+-chelated HiTrap, tag cleaved by TEV, size exclusion chromatography)
T4 sequence (looked up): T2 sequence (looked up) with D21S

T5: mouse MIGA2 residues 275-570, S292E (mouse (Mus musculus), UniProt Q8BK03 275-570, S292E)
T5 construct: also called S292E phosphorylation mimic mutant; source: E. coli BL21 (DE3), purified (Ni2+-chelated HiTrap, TEV cleavage, SEC)
T5 sequence (looked up): T2 sequence (looked up) with D21S

T6: mouse MIGA2 residues 275-570, S295D (mouse (Mus musculus), UniProt Q8BK03 275-570, S295D)
T6 construct: also called S295D phosphorylation mimic mutant; source: E. coli BL21 (DE3), purified (Ni2+-chelated HiTrap, TEV cleavage, SEC)
T6 sequence (looked up): T2 sequence (looked up) with E18S

B1: MSP domain of mouse VAPB (residues 1-125) (domain or fragment, UniProt Q9QY76 1-125, looked up)
chain: MAKVEQVLSLEPQHELKFRGPFTDVVTTNLKLGNPTDRNVCFKVKTTVPRRYCVRPNSGVIDAGASLNVSVMLQPFDYDPNEKSKHKFMVQSMFAPPDTSDMEAVWKEAKPEDLMDSKLRCVFEL
notes: vesicle-associated membrane protein-associated protein B/C (VAPB), Mus musculus, MSP domain, residues 1-125; Cloned into pGEX-6P-1; the pull-down used a GST-fused form, which is not this molecule; also called mVAPB; mVAPB WT
B2: MSP domain of mouse VAPB (residues 1-125) K43L/K45L (domain or fragment, UniProt Q9QY76 1-125, looked up)
chain: B1 chain with K43L, K45L
notes: VAPB, Mus musculus, MSP domain, residues 1-125, with K43L and K45L; also called mVAPB K43L/K45L
B3: phosphorylated FFAT motif peptide of mouse MIGA2 (residues 289-298) (peptide)
peptide: Ac-SED[pS]FF[pS]ATE-NH2
SMILES: CC(=O)N[C@@H](CO)C(=O)N[C@@H](CCC(=O)O)C(=O)N[C@@H](CC(=O)O)C(=O)N[C@@H](COP(=O)(O)O)C(=O)N[C@@H](Cc1ccccc1)C(=O)N[C@@H](Cc1ccccc1)C(=O)N[C@@H](COP(=O)(O)O)C(=O)N[C@@H](C)C(=O)N[C@H](C(=O)N[C@@H](CCC(=O)O)C(N)=O)[C@@H](C)O
notes: also called mMIGA2^pFFAT; source: synthetic peptide, purified by HPLC
B4: mouse MIGA2 residues 275-570, S292E/S295D (domain or fragment, mouse (Mus musculus), UniProt Q8BK03 275-570, looked up)
chain: T2 sequence (looked up)
B5: MSP domain of mouse VAPB (residues 1-125) K87L/K118L (domain or fragment, UniProt Q9QY76 1-125, looked up)
chain: B1 chain with K87L, K118L
notes: VAPB, Mus musculus, MSP domain, residues 1-125, with K87L and K118L; also called mVAPB K87L/K118L
B6: MSP domain of mouse VAPB (residues 1-125) (domain or fragment, mouse (Mus musculus), UniProt Q9QY76 1-125, looked up)
chain: B1 chain
notes: vesicle-associated membrane protein-associated protein B/C (VAPB), mouse, MSP domain, residues 1-125; In the liposome clustering (DLS) and tethered lipid transfer assays a His-tagged form (His-mVAPB) was used; also called mVAPB; wild-type mVAPB
B7: mouse MIGA2 residues 161-570 (domain or fragment, UniProt Q8BK03 161-570, looked up)
chain: GMEESVPTTDGSAESLYVQGMELFEEALQKWEQALSVGQRGDGGSTPTPGDSLQNPDTASEALSEPESQRREFAEKLESLLHRAYHLQEEFGSTFPSDSMLLDLERTLMLPLTEGSLRLRADDEDSLTSEDSFFSATEIFESLQIGEYPLPLSRPAAAYEEALQLVKEGRVPCRTLRTELLGCYSDQDFLAKLHCVRQAFEGLLEERSNQIFFGEVGRQMVTGLMTKAEKSPKGFLESYEEMLSYALRPETWATTRLELEGRGVACMSFFDIVLDFILMDAFEDLENPPSSVLAVLRNRWLSDSFKETALATACWSVLKAKRRLLMVPDGFISHFYSVSEHVSPVLAFGFLGPKPQLSEVCAFFKHQIVQYLRDMFDLDNVRYTSVPALAEDILQLSRRRSEILLGYLGA
notes: Oligomer of unstated size by SEC; source: E. coli BL21 (DE3), purified (Ni2+-chelated HiTrap, tag cleaved by TEV, size exclusion chromatography)
B8: mouse MIGA2 middle domain, residues 161-300 (domain or fragment, UniProt Q8BK03 161-300, looked up)
chain: GMEESVPTTDGSAESLYVQGMELFEEALQKWEQALSVGQRGDGGSTPTPGDSLQNPDTASEALSEPESQRREFAEKLESLLHRAYHLQEEFGSTFPSDSMLLDLERTLMLPLTEGSLRLRADDEDSLTSEDSFFSATEIF
notes: Oligomer of unstated size by SEC; also called central MIGA2 domain; source: E. coli BL21 (DE3), purified (Ni2+-chelated HiTrap, tag cleaved by TEV, size exclusion chromatography)

How the values were obtained:
[1] = target: T1, zMiga2; test: FRET lipid transfer between liposomes; assay type: biochemical; details: labelled compound; 100 nM protein, pH 7.0, room temperature; transport, not chemical turnover
[2] = target: T2, mouse MIGA2 residues 275-570 S292E/S295D; test: ITC; mVAPB (wild type or mutant) in the syringe, mMIGA2^275-570 or mMIGA2^pFFAT in the cell; Microcal ITC200, 25 °C, 25 mM Tris-HCl pH 7.5, 150 mM NaCl, 4 mM β-mercaptoethanol; 20 injections of 2 μl; 1:1 binding model; details: both partners purified
[3] = target: T3, mouse MIGA2 residues 275-570 S295D; test: as above; details: both partners purified
[4] = target: B3; test: as above; details: both partners purified
[5] = target: T4, mouse MIGA2 residues 275-570 S292E; test: as above; details: both partners purified
[6] = target: B5; test: as above; details: both partners purified
[7] = target: B2; test: as above; details: both partners purified
[8] = target: B6; test: cell-based or functional assay
[9] = target: T5, mouse MIGA2 residues 275-570, S292E; test: ITC; Microcal ITC200, 25 °C, buffer C (25 mM Tris-HCl pH 7.5, 150 mM NaCl, 4 mM β-mercaptoethanol); 20 injections of 2 μl; 1:1 binding model; details: both partners purified
[10] = target: B4; test: as above; details: both partners purified
[11] = target: T6, mouse MIGA2 residues 275-570, S295D; test: as above; details: both partners purified
[12] = target: the molecule itself; test: SEC; Superdex 200 increase 10/300 GL, 25 mM Tris-HCl pH 7.5, 150 mM NaCl, 5 mM DTT; proteins injected at 2–4 mg/ml; elution compared with molecular mass standards

Molecule: CCCCCCCCCCCCCCCC(=O)OC[C@H](COP(=O)(O)O)OC(=O)CCCCCCCCCCCNc1ccc([N+](=O)[O-])c2nonc12 [NBD-PA, 1-palmitoyl-2-{12-[(7-nitro-2-1,3-benzoxadiazol-4-yl)amino]dodecanoyl}-sn-glycero-3-phosphate]
- FRET lipid transfer between liposomes [1]: zMiga2 transfers not only PS, but also PE, PC, and PA

Molecule: CCCCCCCCCCCCCCCC(=O)OC[C@H](COP(=O)(O)OC[C@H](N)C(=O)O)OC(=O)CCCCCCCCCCCNc1ccc([N+](=O)[O-])c2nonc12 [NBD-PS, 1-palmitoyl-2-{12-[(7-nitro-2-1,3-benzoxadiazol-4-yl)amino]dodecanoyl}-sn-glycero-3-phosphoserine]
- FRET lipid transfer between liposomes [1]: zMiga2 transferred PS more rapidly than other phospholipids

Molecule: B1
- stoichiometry N [2]: 0.658 ± 0.009
- stoichiometry N [3]: 0.501 ± 0.013
- stoichiometry N [4]: 0.755 ± 0.07
- stoichiometry N [5]: 0.633 ± 0.071

Molecule: B2
- stoichiometry N [4]: 1.04 ± 0.027

Molecule: B3
- Kd [6]: 5 ± 0.4 µM
- Kd [7]: 8.6 ± 1.4 µM

Molecule: B4
- liposome particle size by DLS: donor liposomes pre-anchored with His-mVAPB mixed with acceptor liposomes pre-anchored with His-mMIGA2^275-570 (S292E/S295D), compared with wild-type His-mMIGA2^275-570 [8]: ~5 fold

Molecule: B5
- stoichiometry N [4]: 0.698 ± 0.071

Molecule: B6
- Kd [9]: 26.4 ± 6.8 µM
- Kd [10]: 2.5 ± 0.3 µM
- Kd [11]: 8.1 ± 1.5 µM

Molecule: B7
- binding result [12]: binds

Molecule: B8
- binding result [12]: binds
